Experimental findings from PMC4762007, “Insight into Coenzyme A cofactor binding and the mechanism of acyl-transfer in an acylating aldehyde dehydrogenase from Clostridium phytofermentans” (Scientific Reports, 2016) are described below.

In data set [1] the target is T1, Cphy1178(20–462) (Lachnoclostridium phytofermentans, UniProt A9KN57).
T1 construct: gene Cphy_1178; E. coli BL21(DE3), pET28a; tag state not clearly stated; tetramer 4 x 47,452 Da; also misprinted as 20-426
T1 sequence (A9KN57 20-462): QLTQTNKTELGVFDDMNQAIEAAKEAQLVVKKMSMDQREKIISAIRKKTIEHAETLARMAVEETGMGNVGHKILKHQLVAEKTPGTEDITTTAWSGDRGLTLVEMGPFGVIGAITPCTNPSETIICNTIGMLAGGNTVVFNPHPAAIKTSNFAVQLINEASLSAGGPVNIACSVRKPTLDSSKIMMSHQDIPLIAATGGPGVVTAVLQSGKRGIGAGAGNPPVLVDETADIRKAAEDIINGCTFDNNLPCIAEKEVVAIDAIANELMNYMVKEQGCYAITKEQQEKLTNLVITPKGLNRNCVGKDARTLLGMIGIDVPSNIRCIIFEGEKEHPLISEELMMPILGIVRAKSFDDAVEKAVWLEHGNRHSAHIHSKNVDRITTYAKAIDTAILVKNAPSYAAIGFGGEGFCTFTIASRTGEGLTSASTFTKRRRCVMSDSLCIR
Put plainly: NADH formation. It is filed as biochemical. The note with it: substrate inhibition; 0.66 mM NAD+, 100 mM KCl, 10 mM 2-mercaptoethanol, no CoA, pH 8.0, 21 °C.

For data set [2], the target named is T1, Cphy1178(20–462). Put plainly: LC-MS detection of propionyl-CoA. The note with it: 100 µM CoA, 75 µM NAD+, 10 mM propionaldehyde, 100 mM KCl, pH 8.0, room temperature. The class given is biochemical.
The target of data set [3] is Cphy1178(20–462), acylating aldehyde dehydrogenase from the Clostridium phytofermentans fucose/rhamnose utilisation BMC, N-terminal truncation (Clostridium phytofermentans). Nature of the data set: crystal structure; X-ray, space group I 41 2 2, one chain in the asymmetric unit; tetramer generated by crystal symmetry (D2); crystals from 0.1 M sodium acetate pH 4.7, 1.8 M ammonium sulphate, soaked with 10 mM NAD+.

For data set [4] the target is unchanged. Put plainly: native MS; solution-phase disassembly: tetramer disrupted by addition of 40% methanol (v/v) prior to MS analysis; tetramer to dimers and monomers.
Data set [5] has the same target. Put plainly: native MS; nano-ESI ion-mobility MS (Synapt G2); protein buffer-exchanged into 100 mM ammonium acetate pH 7.0; tetramer.
Data set [6] deals with T1, Cphy1178(20–462). Nature of the data set: LC-MS. The note with it: 100 µM CoA, 75 µM NAD+, 10 mM propionaldehyde, 100 mM KCl, pH 8.0, room temperature. The class given is biochemical.
Substrate in data set [7]: CCCCCC=O
Nature of the data set: purified protein. The note with it: 0.66 mM NAD+, 100 mM KCl, 10 mM 2-mercaptoethanol, no CoA, pH 8.0, 21 °C.

Substrate in data set [8]: CC=O
Nature of the data set: purified protein. The class given is biochemical, Lachnoclostridium phytofermentans. The note with it: 0.66 mM NAD+, 100 mM KCl, 10 mM 2-mercaptoethanol, no CoA, pH 8.0, 21 °C.

Substrate in data set [9]: CCC=O
Put plainly: purified protein. The class given is biochemical, Lachnoclostridium phytofermentans. Particulars: 0.66 mM NAD+, 100 mM KCl, 10 mM 2-mercaptoethanol, no CoA, pH 8.0, 21 °C.

Substrate in data set [10]: CCCC=O
Nature of the data set: purified protein. It is filed as biochemical, Lachnoclostridium phytofermentans. The note with it: 0.66 mM NAD+, 100 mM KCl, 10 mM 2-mercaptoethanol, no CoA, pH 8.0, 21 °C.

Substrate in data set [11]: CCCCC=O
Nature of the data set: purified protein. It is filed as biochemical, Lachnoclostridium phytofermentans. Particulars: 0.66 mM NAD+, 100 mM KCl, 10 mM 2-mercaptoethanol, no CoA, pH 8.0, 21 °C.

Consider `CCCCC=O` [Pentanaldehyde], for which the “Ki” value at Cphy1178(20–462) [1] is listed as 12.61 ± 0.46 mM.
As to `CC(C)(COP(=O)(O)OP(=O)(O)OC[C@H]1O[C@@H](n2cnc3c(N)ncnc32)[C@H](O)[C@@H]1OP(=O)(O)O)[C@@H](O)C(=O)NCCC(=O)NCCS` [CoA], the “LC-MS detection of propionyl-CoA” value at Cphy1178(20–462) [2] was “reaction mixtures containing NAD^+ and CoA”.
Consider “Cphy1178(20–462), acylating aldehyde dehydrogenase from the Clostridium phytofermentans fucose/rhamnose utilisation BMC, N-terminal truncation (enzyme)”, for which the stoichiometry N was 4 in [3], 2 in data set [4] and 4 in [5].
In the case of `CCC(=O)SCCNC(=O)CCNC(=O)[C@H](O)C(C)(C)COP(=O)(O)OP(=O)(O)OC[C@H]1O[C@@H](n2cnc3c(N)ncnc32)[C@H](O)[C@@H]1OP(=O)(O)O` [propionyl-CoA], the LC-MS entry on Cphy1178(20–462) [6] was “LC-MS analysis confirmed the presence of the propionyl-CoA product”.
With `CCC=O` [Propionaldehyde], at Cphy1178(20–462) [1], the “Ki” value is on record as 17.31 ± 0.46 mM.
Consider `CCCCCC=O` [Hexanaldehyde], for which the “Ki” value on Cphy1178(20–462) [1] was determined as 23.52 ± 1.28 mM.

B1: Cphy1178(20–462) (Lachnoclostridium phytofermentans ISDg) (protein)
chain: QLTQTNKTELGVFDDMNQAIEAAKEAQLVVKKMSMDQREKIISAIRKKTIEHAETLARMAVEETGMGNVGHKILKHQLVAEKTPGTEDITTTAWSGDRGLTLVEMGPFGVIGAITPCTNPSETIICNTIGMLAGGNTVVFNPHPAAIKTSNFAVQLINEASLSAGGPVNIACSVRKPTLDSSKIMMSHQDIPLIAATGGPGVVTAVLQSGKRGIGAGAGNPPVLVDETADIRKAAEDIINGCTFDNNLPCIAEKEVVAIDAIANELMNYMVKEQGCYAITKEQQEKLTNLVITPKGLNRNCVGKDARTLLGMIGIDVPSNIRCIIFEGEKEHPLISEELMMPILGIVRAKSFDDAVEKAVWLEHGNRHSAHIHSKNVDRITTYAKAIDTAILVKNAPSYAAIGFGGEGFCTFTIASRTGEGLTSASTFTKRRRCVMSDSLCIR
notes: E. coli BL21(DE3), pET28a; tag state not clearly stated; tetramer 4 x 47,452 Da; also misprinted as 20-426
Consider B1, for which the Km was found to be 2.90 ± 0.10 mM in the data set “purified protein [7]”; 5.16 ± 0.10 mM in the data set “purified protein [8]”; 0.82 ± 0.02 mM in the data set “purified protein [9]”; 1.74 ± 0.07 mM in the data set “purified protein [10]”; 2.2 ± 0.7 mM in the data set “purified protein [11]”. Besides, the kcat in “purified protein [7]” amounted to 5.61 s⁻¹; in the data set “purified protein [8]” it was 1.62 ± 0.02 s⁻¹; in the data set “purified protein [9]”, 3.45 ± 0.03 s⁻¹; in the data set “purified protein [10]”, 3.44 ± 0.7 s⁻¹; in “purified protein [11]” it was 5.44 ± 0.1 s⁻¹. Further, the kcat/Km in “purified protein [7]” amounted to 1930 M⁻¹ s⁻¹; in “purified protein [8]”, 310 M⁻¹ s⁻¹; in the data set “purified protein [9]” it was 4210 M⁻¹ s⁻¹; in the data set “purified protein [10]” it was 1980 M⁻¹ s⁻¹; in “purified protein [11]”, 2470 M⁻¹ s⁻¹.

As a reminder, the stoichiometry N is the number of molecules, sites or subunits per partner or assembly. In general, Km refers to the concentration of substrate that gives half-maximal velocity. For orientation: kcat means the number of substrate molecules converted per active site and unit of time at saturation. A word on the kcat/Km: it is the turnover number divided by the Michaelis constant.
